The domain aggregation screens of Martell et al. (2025)

Experiment: soluble fraction after stress (log2 fold change); higher = more stays soluble; pooled small domains, quantitative proteomics
Conditions: stress: pH 4
Outline: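 Aggregation propensity is read out as the fold change in how much of each domain remains soluble after acid stress. The custom small-domain libraries were pooled, held at pH 4 and analysed with high-throughput quantitative proteomics. On the log2 scale used, higher values mean more of the domain stayed soluble.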

Sequence	soluble fraction (log2)
HMDTIVHFLSDGRRITVRIKRNARKNIILRPMAADAVSATIPPWLGRRQLSAWLSEREDLLLSVLSRAA	-0.736
HMAPKVTLNETETAIFEKMQQEKQLLLSELRTHFDISNKLWDTSIKTLTKNQLLTVSKEADLLWIKL	-0.935
HMIAWNFDTMKESLSEMERVDYQEFIKAFLSLELSISDRTILNQVYQDYMDEDDLSLISDELRV	-1.4
HMNDLKEDTITVQSVEYIDSDDGTMVYIKDTNHQVYKQAFKEDESLIRISAGDVLHVKYQPMDNEIHLL	-2.07
HMGDPYAILGLLPGASMEDVRHAWRRQAAENHPDRMLQRGAPPEFVEIAREKTAAINAAYARIREELSI	-0.638
HMSTTALLEKMVRYIRTLPVISQVVLSLHYYRGMELREIASELDITESRASQLHTTAVLGIRDLLSSY	-2.02
HMRKTIQDFLSSNKVDIAKLLTLALEKTKEDLYKNLSYNLTNKELEKLKLLIKKREQGIPFAYLS	0.0954
HMHAEEIAREAKEALERGEEFHFAGITVRSEEALEFLEEWLRKFF	-1.23
HMLKDQSIAQLEKNLDDLKGLMRKMFGSSDVPKITKMISDIESSLANFNQSKANKLIVQTTNYISSKL	-0.0978
HMGIFDIIQEINRQGVTVLLIEQNANMALKIADVGYVLETGRISLTGSGRELLANEAVKKAYL	≥ 0.43
HMTGIVVVDVVGQVGRPGLVSLPAGSRVADAITAAGGATPEADVSLLNQARLVIDGEQIRVPRPGEVIAA	0.22
HMNERLKQLRLSLNLNQEEFGKWLGISKSGVSDIESGRRKVTEQHIIMLSNHNISEKWLRTGEGEMFV	0.0158
HMKTYEILFDILSRESDYISGEKLAQELGISRTSIWKAIQHLEKEGVHIESVKNKGYKLLSGDLLIAEKI	-0.343
HMEESTYQWNNFVRDFYASRVSAQYTNKLKVAAILWHHVKNTPQSKIYHDNLVSKYAEEINYFK	-0.387
HMKPTVKGHFTRKESNVGGYADVRGWGVAGTPSMMANQSKDTRRFSTLIVPGRSVNVHPSPTKEAIIWWQS	-0.138
HMQSVKTQPLRDWLLAHFDKPYPDDEDKVRLAEASGMTRAQVGNWFINARVRTWRPMVLDLGEEIERESV	-0.521
HMRTNNEITSYKLKSGKKRWKFQTYLGLDDKGQKVSVTRQGFRTYNEAISEYNKLRAQGTQGYQ	≥ 0.43
HMLAVSVDKDGKVYIQDSETAVDAVTAKLRAISGNNSEIRIFVRGDADVNYGRIMEIMGVINAAGFRKVAL	-0.78
HMKTYGGDNSLHKFDEHHSWMVAKYGPVVKQTINGETKWLKVKKDLTLAQVKKMKLEDVLLPKSQT	0.245
HMIPDLPAVGVNVHKERRRQQLSLDALAAGSGVSKAMLSQIESGKVNPTVATMWKIAHALGVDFELLLKGE	-0.00451
HMRNKTVKEVLDYIEKNSEFIFFYYSKAIDTKRIVSLSVKDQPITVILDQLFKNTDVLYEIKDRQISLKRE	-0.508
HMTRVDKLQTWLSLPREQRDWDEGALMLLQLTGNKIMYRNLSVNPEGKANFIEGKLQQYLEFRLA	-1.16
HMSFTSQSVLIEIVRGTTQLTPLAAAVGANKREVVLAVHRLKQRGLVVSAGLGQYAATEAGRAFLTAGREV	≥ 0.43
HMNMAEETLDTAAKILKAAEEEFMEKGYGNAKMMSIAARAGVSHSMLHYYYRSKGKLFQMIFDEKA	-1.06
HMEYMKQRLYDIIELFKRSFSPSFSEEEKKKLENVLQDDFLRKAYEQLSDEVFIEEKFREFDGY	-2.28

Sequence	soluble fraction (log2)
HMDSINIDEETAKLGPNAPQIIDGIKKWGQGLVAKGVWSDEDFDEFKVFAATSSGINALNKIRKYY	-0.138
HMELSTQERIQILLEILNQREIISFSQTLRKKEGKKGVVVTFLASLELAKDGYVTLVQNKSDQIYLRSN	-0.428
HMSAEDYMEMIYRLSQENGFTRVNDLASALNVQPPSVTRMIQKLAELNLIKYEKYGVIMLQPYGIEVGRSL	-1.47
HMDLLKANNLSQINVDKLTDEEILKYSQQLKQSGLTESQAEQIAIARGMPATEIAKLKQRLISLTNMQ	0.213
HMRLDHIFSVVERLKGVSLGAGDRLEVQKYEDLLTVYKSKNALSSEEAQTLNDILASLLKMMAKYD	-0.54
HMEVAVQFIEFKIPENHAWIGKEIREITFPPESILVLIIRDGKKLVPNGKTVLKEGDSLILSGKASD	-1.61
HMTNIQFINLKMTDNHPWIHQYIKDIILPPQTRIVMIKRNDIKTIPKGERRIEKDDELILSAFESQT	-1.27
HMDKKIVGVNAGKVWQALNEVTEISIVELAEKLNLSVESTALAAGWLAREDQISIERKNGTIELQRKN	-0.177
HMHEHWDGSGFPKHLRGANIPLGARVIAVADTYDSITSSRAYRAGSTHEAAEREMRRVSGTQLDPE	0.0226
HMDVNMLVTGMLHKGEKSFVRVSFLRGKDWAEGIVPDAKIEKSQGFMEEEVARLEAYLLEQKSMIMEQA	-1.24
HMPAEEVPLYKAVVVTTPPNRLRVRFSPAGDFKRWLQSGEEVDVYQELGDWRRIEPNGWSSAEWLQRVG	0.00708
HMAGTKRAENIEIQKLTEVLEARLDSVGFFWPDHKAESMIMTLRNMISRLPLTEADVRVFHGIIKSLADK	-0.727
HMQNDILIQADEIVGDYFDMDKEALKMNKQAVIADIEKRQATAQGDEASALHYAKQKVENEFEDDGSQKD	-0.233
HMKGIVFTEFLDLVEERFGLEMVDAIISQSKLESKGVYTSIGTYSFSELLQLLQNLKIQTGISIDNLLLI	-1.51
HMAIDLSLIPGNLLRELHGAVEDGDMYRIRELIRSISAVDEKVGKELLLLAERYDYERLLELVND	-1.03
HMIDDNTIIQIGDSYSKSIRLLGEPIELKNRSLNQKSYFMAVYDFKGRRYRLFFENDVLFDILRD	-0.486
HMIPENKRVLISLTYIYGIGKKISQDILEKANIDSSIKTSQLTDDDVARIRQLIENDYLVEGELRV	0.00777
HMSKAYLSVESNISGARVFVDGQKEGTTPLSDVLLSAGEHLILVKKQGYETYQKRVRFQKGRSMSLYVDLS	-0.0554
HMLTAPMPGTIQQILVTKGQKVRSGQTLMILEAMKMEHKIKAPNSGEIISINYSLGNRVEMGANLIEI	0.0752
HMEGTVQQDKFDAYKAKFEDAISNDLNTSMAITIIYDLLKDDMNDKTKLALINDFDKVLSLNLTTA	-1.17
HMSLTEEQVDSGLKEIRLALLEADVALPVVKNFITNIKPKAIGQEIIRSTSPGQMIVKIVYDELVSIL	-0.85
HMATTIDFTVGDDVQVMNGPLESFTGKVTELNEASQKVKVDVVMFGRVTNVELDFVQVKKIT	-0.531
HMETVRHFRLDWSQAADRLDKVLASLMNDVSRARIQEWIRLGAVSVNGEILTDVRAKVAGGDAIDVTPQTA	-0.0931
HMHVLAVDEALHKLTELNELHAKIVEMRFFSGMTVQEVADELGVSKRKIESEWTMIKAWLRKELN	-0.916
HMSSDLDQYMKNIRKQHNLSKREFAKQLGISAATIVRIENGITVSPSKNLISKLAYYLQKSEVEILQDIQS	-0.393

Sequence	soluble fraction (log2)
HMVADEGELLAIAREVVAANPKVFEDWKAGKQSAAQWFVGQIMKRTRGRANPQLALKLVTQALEEHAR	-0.21
HMGQVFEGTFNRKANGKNSVTPAEGGEPVFIAERNSLHAMNGDLVKVSLLAKKKHQPREAQVIEILKRSD	0.338
HMINYSQKQLIAIQDELSKRFQALENESTKNNVTGFGVGLHYIDIDLIVNTPEKQKEFREKIMDSPAFRFN	0.106
HMNAISIDEAKKIALAKVSGASDQHIRIEADHDDGRLVYEGEIHYGRVEYEFEIDGSTGAIIEWDADRK	-0.0156
HMKPSNLTSDERTQLLAQLKTAMGSDQYNQLRRQVGEEKLLEYVLDNVPGIQEEILGNRAVQENIDLH	-0.266
HMVELNDNEKIVYDILKETEKIHIDELTAKVQLTQSILSGALVQMEMKGMIVSLPGKMYKLL	-1.53
HMGMLATFVTSAKVPDDVVYAITKEVFENLDEFKKLHPALEGLTRETMLEGLTAPIHPGALKYYKEAGLM	-1.32
HMVAFYATPKERGIYDDAETYREGDIVSIADGSRWIYVNPTATAGNDPADGSVYWERMSGAATGP	-0.127
HMELPPLQPGQPIDGRVEQQIRAGYYVVSVRGRGYEFQLPESARPGDLLRMVYLNDHPRLTFALLRIDNAN	-0.546
HMPRPFPELTTREHDILALIARGWSNGRIADHLSLSGKTVSNYVSNILGKLQVTARAEAAERAREAGMGQ	-0.401
HMQLHDTMKRVYEALDISEQKLAESLGLKLSTIINWQKNGISKIGINKLNQTFGLDMQWILTGQGEPFI	-0.0735
HMEFNDLNDDEKAILHIMYNTGEKMTTALAARITNRGRNFASKLLKSLVKKEILEWHGTSKQDRNQYYTLA	-0.337
HMEPVTETVYAMDTVNIRAAADQTSEKIGSVTVGTALTRTGTDGDWSIIDYNGTTGYVKSEFLSNTAPEV	-0.22
HMITANNYFNEVERIGVETLPETLRKGHDLVVRSTNSGTNWSNYQNNESIRKVIDLYLQKLNEYVSTST	-0.676
HMQIIETTVGRVLFNEKVPEAAGYINEVLTKKSLRDIIHGILKKTSVPETAAFLDEIKSLGYNFAF	-0.264
HMTSPLQIHPNPATKHIELGLESPEVVLIKDINGKTVYQELVAPNQYIDIEHLKNGIYFIESKNKFGKLIK	0.29
HMSTISPNAFNFLQQNLNKFSDDAEGKMIKDILSKTTYDEYVKNEKSKTDFNSLLRRQTTTGDDNLNRYIN	0.072
HMRMSLDEAKAVVLPIGEYKGRNMGEVLAIKPELIDFYASQKFNSSKYPYLKEAAQVILENQ	0.0219
HMSSSYVYGGNGEIVILSDVSKHLNVYNLNGQKVTDVNLTAGELQRISIATGIYVVGGKKIVV	-0.121
HMSNLGLQIVRTLTDAGKGVVFITHKLKEALTIADRINVLRRGKVVGDADPKTASESQIAEMMVGRPVQL	0.0653
HMVKETNYSFFLKQIDAGTVEQVQIEDTEIKFKVSTADGKEQVYSTVRVEDPDLVDRLYSKGNIDFTGN	-1.3
HMVILPGEKMVVKIVQPGKEKGQGVGYLADGTMIVVDSGDKMIGQDVPTEITRVFQTVAGKMLFAVPVD	-0.255
HMAQMDDPEMVLHIYNKMIQQRLFDTAVGYSYLKDLQEYLQSIPFIRKEDIFPIPVQHPQVEESLRKAK	0.0635
HMSELSGSQLKAIREEKHIPLEQVASATRIRLSLLEALEMDEYAELGSRTQARGFLKLYADFLGVPFEA	0.00575
HMDYADISYKIFMNHIKNGQVERVELSGDPRIMGKLKDGTYFVTDNPRTENFKEFLLLNNVQVIETN	-0.772
